Data from US7148006.

Key:
[1] = biological target: T1, GST-NS5A (HCV-1a NS5A aa 1-427 fused in frame with glutathione-S-transferase), P26664
T1 chain: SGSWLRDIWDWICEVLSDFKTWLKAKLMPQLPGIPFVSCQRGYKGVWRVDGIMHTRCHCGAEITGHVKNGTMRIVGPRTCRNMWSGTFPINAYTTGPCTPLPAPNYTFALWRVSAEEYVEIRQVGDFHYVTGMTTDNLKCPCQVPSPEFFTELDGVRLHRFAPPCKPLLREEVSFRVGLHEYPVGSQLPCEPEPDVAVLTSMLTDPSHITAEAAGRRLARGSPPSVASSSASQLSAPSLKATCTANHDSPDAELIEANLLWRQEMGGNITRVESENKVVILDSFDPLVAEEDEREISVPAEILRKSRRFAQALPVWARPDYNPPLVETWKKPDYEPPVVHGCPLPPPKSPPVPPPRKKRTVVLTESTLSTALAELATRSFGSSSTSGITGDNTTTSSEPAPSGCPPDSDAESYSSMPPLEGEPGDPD

[2] = biological target: GST (glutathione-S-transferase alone) [GST: P08515]
[3] = biological target: T2, NS5A 1a-wt (full-length NS5A from IFN-resistant HCV-1a, untagged), P26664
T2 chain: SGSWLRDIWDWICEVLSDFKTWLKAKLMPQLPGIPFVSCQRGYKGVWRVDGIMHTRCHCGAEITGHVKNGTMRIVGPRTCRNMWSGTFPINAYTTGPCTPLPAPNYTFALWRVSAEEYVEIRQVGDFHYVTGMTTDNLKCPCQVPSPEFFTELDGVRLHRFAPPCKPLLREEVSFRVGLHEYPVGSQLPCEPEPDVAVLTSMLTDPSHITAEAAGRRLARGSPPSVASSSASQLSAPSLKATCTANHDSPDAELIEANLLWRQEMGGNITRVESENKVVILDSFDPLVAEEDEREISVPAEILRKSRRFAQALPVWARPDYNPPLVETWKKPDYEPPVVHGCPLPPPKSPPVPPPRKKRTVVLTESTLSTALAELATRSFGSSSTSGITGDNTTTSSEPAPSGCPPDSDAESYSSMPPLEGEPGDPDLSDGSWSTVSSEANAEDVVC

[4] = biological target: vaccinia virus K3L protein, P18378
[5] = biological target: NS5A 1b-4 (untagged, expressed from pYES-NS5A 1b-4)
[6] = biological target: NS5A 1b-2 (untagged, expressed from pYES-NS5A 1b-2)
[7] = biological target: NS5A 1b-wt (untagged, expressed from pYES-NS5A 1b-wt)
[8] = biological target: NS5A 1b-5 (untagged, expressed from pYES-NS5A 1b-5)

B1: wild type human PKR, full length (aa 1-551) (protein)
chain: MAGDLSAGFFMEELNTYRQKQGVVLKYQELPNSGPPHDRRFTFQVIIDGREFPEGEGRSKKEAKNAAAKLAVEILNKEKKAVSPLLLTTTNSSEGLSMGNYIGLINRIAQKKRLTVNYEQCASGVHGPEGFHYKCKMGQKEYSIGTGSTKQEAKQLAAKLAYLQILSEETSVKSDYLSSGSFATTCESQSNSLVTSTLASESSSEGDFSADTSEINSNSDSLNSSSLLMNGLRNNQRKAKRSLAPRFDLPDMKETKYTVDKRFGMDFKEIELIGSGGFGQVFKAKHRIDGKTYVIKRVKYNNEKAEREVKALAKLDHVNIVHYNGCWDGFDYDPETSDDSLESSDYDPENSKNSSRSKTKCLFIQMEFCDKGTLEQWIEKRRGEKLDKVLALELFEQITKGVDYIHSKKLIHRDLKPSNIFLVDTKQVKIGDFGLVTSLKNDGKRTRSKGTLRYMSPEQISSQDYGKEVDLYALGLILAELLHVCDTAFETSKFFTDLRDGIISDIFDKKEKTLLQKLLSKKPEDRPNTSEILRTLTVWKKSPEKNERHTC
**Q.** With B1 as the protein, how does the “PKR autophosphorylation and phosphorylation of an exogenous histone substrate, in vitro kinase assay” value [1] read?
**A.** The value was “as little as 0.2 pmol of NS5A can inhibit 1.8 pmol of PKR”.

**Q.** What about the “PKR autophosphorylation and phosphorylation of an exogenous histone substrate, in vitro kinase assay” value [2] of the same protein?
**A.** The value was “Equal molar levels of GST had no effect upon PKR activity”.

**Q.** And the “level of basally phosphorylated eIF-2α relative to total (isoelectric focusing, densitometry)” value [3]?
**A.** The value was “NS5A, 9.8% (lane 2)”.

**Q.** What about the “level of unphosphorylated eIF-2α in yeast RY1-1 over vector control” value [3] of the same protein?
**A.** The value was “approximately an 11-fold increase in the level of unphosphorylated eIF-2α”.

**Q.** What about the “level of basally phosphorylated eIF-2α relative to total (isoelectric focusing, densitometry)” value [4] of the same protein?
**A.** The value was “K3L, 11.7% (lane 3)”.

**Q.** And the “eIF-2α serine 51 phosphorylation in yeast RY1-1 (isoelectric focusing immunoblot)” value (from here on “eIF-2α serine 51 phosphorylation”) [5]?
**A.** The value was “possessed predominantly the hyper-phosphorylated isoform of eIF-2α, similar to the vector control strain”.

**Q.** What about the “eIF-2α serine 51 phosphorylation” value [6] of the same protein?
**A.** Its value is “possessed predominantly the hyper-phosphorylated isoform of eIF-2α, similar to the vector control strain”.

**Q.** What about the “eIF-2α serine 51 phosphorylation” value [7] of the same protein?
**A.** Its value is “exhibited a significant reduction in the level of hyper-phosphorylated eIF-2α”.

**Q.** What about the “eIF-2α serine 51 phosphorylation” value [8] of the same protein?
**A.** The value was “possessed predominantly the hyper-phosphorylated isoform of eIF-2α, similar to the vector control strain”.
